According to patent US20220088279A1 (GAMBRO LUNDIA, published 2022):

Biological target: T1, CD177 (UniProt Q8N6Q3 22-408, limits assumed)
T1 construct: Immobilized on a GLH sensor chip by amine chemistry for SPR; also called neutrophil receptor CD177
T1 sequence (looked up): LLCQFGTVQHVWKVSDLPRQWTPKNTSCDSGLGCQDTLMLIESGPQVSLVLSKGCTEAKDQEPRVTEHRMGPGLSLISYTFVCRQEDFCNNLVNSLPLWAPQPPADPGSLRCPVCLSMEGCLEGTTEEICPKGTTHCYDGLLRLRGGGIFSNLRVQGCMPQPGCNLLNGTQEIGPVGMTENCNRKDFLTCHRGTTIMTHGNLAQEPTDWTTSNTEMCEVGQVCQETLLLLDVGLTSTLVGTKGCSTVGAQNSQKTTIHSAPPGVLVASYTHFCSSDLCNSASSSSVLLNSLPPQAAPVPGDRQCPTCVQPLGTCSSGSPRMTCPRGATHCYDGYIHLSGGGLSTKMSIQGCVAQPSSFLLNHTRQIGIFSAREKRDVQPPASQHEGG
Experiment: SPR (ProteOn XPR36), CD177 immobilized on GLH chip by amine chemistry, PR3 variant in a concentration series
Description: FIG. 2: Comparison of wtPR3 and monomeric PR3 properties by SPR and ELISA. […] The antibodies each recognize distinct, non-overlapping epitopes on PR3. wtPR3 (left bar) and the monomeric Trp222Ala PR3 variant (right bar) are equally well recognized by the antibodies.
Experiments were performed on a ProteOn XPR36 instrument (BioRad) with proteins immobilized to GLH sensor chips (BioRad) using standard amine chemistry. The binding interaction of a concentration series of soluble monomeric Trp222Ala PR3 variant with immobilized CD177 was assessed (FIG. 2A).

B1: monomeric Trp222Ala PR3 variant (enzyme)
chain: IVGGHEAQPHSRPYMASLQMRGNPGSHFCGGTLIHPSFVLTAAHCLRDIPQRLVNVVLGAHNVRTQEPTQQHFSVAQVFLNNYDAENKLNDVLLIQLSSPANLSASVATVQLPQQDQPVPHGTQCLAMGWGRVGAHDPPAQVLQELNVTVVTFFCRPHNICTFVPRRKAGICFGDSGGPLICDGIIQGIDSFVIAGCATRLFPDFFTRVALYVDWIRSTLRRVEAKGRP
notes: Made as a C-terminal fusion with human Ig1 Fc and secreted through an N-terminal Ig1 signal peptide; The propeptides aa 26-27 and aa 249-256 may also be absent, and residues left by the TEV site may remain at the C-terminus; also called monomeric PR3
For B1, the Kd was 57 nM.
